Measurements reported in the RNAGym collection of RNA variant scans (doi:10.1073/pnas.2313332121).

B1: TPR t1 (parent)
chain: GACCAAUCUGCCCUCAGAGCUCGAGAACAUCUUCGGAUGCAGAGGAGGCAGGCUUCGGUGGCGCGAUAGCGCCAACGUCCUCAACCUCCAAUGCAUCCCACCACAUGAUGAUGCCUGAAGAGCCUUGGUUUUUUG

Variants of: B1
Experiment: polymerase ribozyme fitness, log enrichment relative to wild type (log ratio); higher = more active; in vitro selection for triplet polymerase activity
Summary of the method: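 Mutant libraries were PCR-built and transcribed for each subunit of a heterodimeric triplet polymerase ribozyme and selected for one round in triplicate at −7 °C, frozen, before gel excision of extended constructs and streptavidin-bead capture. Input and output libraries were Illumina-sequenced, keeping genotypes with ≥10 input reads and ≥1 read per output. Fitness is a logarithmic ratio of genotype to wild-type enrichment, in base 2, using inverse-variance-weighted replicate averages.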

Variant	polymerase ribozyme fitness (log ratio)
A41G C62A	-1.85
U38G C80U C86U	-1.86
C40U A46U A100U	-3.37
G48A G63U A121U	0.283
U54A C70G A118G U133A G135U	-2.84
U7G C72A A105U U125G	-2.26
A2C U96A	-3.03
C20G G52C A95G C102A C115U	-6.79
U38G C70U U125G	-2.25
U7G G69U C76G A95U	-1.74
A6U U96C C101U G122A	-0.932
A37G C49A C56A G128C	-3.61
G120C G135C	1.48
A5C C12U C73A C99U	-4.28
G35C U106C G117A	-5.76
A66U C124U	0.294
G48U G71U U81A C124U	-0.483
C8A G47C G48A G58A G60U	-1.54
C4A C56A G69U A90C	-2.84
G47C A121G	0.606
A29U C72G C104U G120C	-0.531

Variant	polymerase ribozyme fitness (log ratio)
A95G A121U	2.11
C82A U129C	-0.227
G42U G45A G63C	-1.98
A16U U59G	-1.3
C12G C15U A74U U116A G117A U133A	-1.36
A2G C8G C22U	-5.08
A27U C72A U96A	-4.21
G113U C114G	-2.89
C49G G71A	-0.461
C11G U54A G93C	-0.558
C12U C15A	-0.528
C82U G110A C115G	-5.29
C12U C88A	-0.264
C62G G110U	-2.94
A43U G45U	-1.71
C15A G48U A50G C115U	-4.63
C4U U96A	-1.6
C62U U112G	-0.737
C53G G63A C115G U116A U131G	-7.22
C15U G60A U81G C82G A119G G120U C123A	-1.78
C28G A43G G45A C79A C115U G117U	-5.19

Variant	polymerase ribozyme fitness (log ratio)
C4G G120A	-0.396
C13U C49A	-0.597
G10U C82A U92G U116C A119U	-5.07
G69U U106C A121U	2.34
C86U	-0.178
A2G G71A	-0.784
G44U U55A A83U	-1.34
G51A C53U C62G G69U C82U G120U	-6.98
U112C U125A	1.63
C8G C123U	1.6
U9G U92G C115G U132C	-0.718
G47A A50U C53A U78G	-2.33
C11G C114U C124G	-2.07
G10A U38G	0.0174
C40U C56A	-0.555
C28G G57C A83C C123A	-2.8
C86G C94U G110A U129A	-4.63
A26U A46C G63A G120U	-5
C20A G61C	-4.5
C12A G17U	-3.81
C53G A119G G128U	0.277

Variant	polymerase ribozyme fitness (log ratio)
C73U C89G A100U	-2.03
G71C C114G	-4.37
C8A U21C A83G G117A	-1.39
G47A G110C	-4.91
G48C G113U C123A	-4.5
C114A U133G	-1.84
G10C C12A A83C C124G	1.04
G10A C72G U96A C104U	-0.61
G19A G35C C53G C114G	-6.59
C88A U130G	-1.33
C72G A90U C101A G122A	-3.94
C56U A68U C70U U92C C104U C124U	-7.15
G77A G93A A100G U112C U131A	-2.12
G61A C73U C76U	-3.66
A37U A91G A105U	-3.28
U7G C28A G57U G110C	-1.2
G44U U133G	-1.78
A26C C56G	-5.43
A18G C22G A27U G117C	-4.21
C13A A83G A121U C123U	0.492
